# Assay: soluble fraction after stress (log2 fold change); higher = more stays soluble; pooled small domains, quantitative proteomics
# Conditions: stress: pH 4
# In short: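 With high-throughput quantitative proteomics, pooled custom libraries of small protein domains were measured after pH 4 stress. Each domain's soluble amount after the stress gives a fold change taken as aggregation propensity. Higher log2 values mean more of the domain stayed soluble.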
row,Sequence,soluble fraction (log2)
1,HMQLHDTMKRVYEALDISEQKLAESLGLKLSTIINWQKNGISKIGINKLNQTFGLDMQWILTGQGEPFI,-0.0735
2,HMEMTDKEEELMRIFWNHGPMFVREIVELYPEPRPHFNTLSTFVRNLEQKGFVSHEAVGGSFRYYAV,-1.44
3,HMTGKVSHGERKSVLVSLAGSMRARGMSIDAVRAGLYADNEKRFDPPLDERDIEDVLNSAKKWGDP,-0.0814
4,HMEAGTEYVERAADYIRSHFQEDLTVSKLALYVGLNRSYLTTVFQNTLHVSPQQFLMRFRMERAAQLLD,-0.302
5,HMRLSESLLDDIPGIGAARKRALLQSFGSVRKLRHADAEEIAAKVPGIGLNFAEKIVEALRKK,0.187
6,HMLVGGPDTPSKVTVSFDLGSRQAVDELTERAGAAGGRIGDIDDYPFMYQRQFDDPDGYHYSPFWMKP,-0.528
7,HMSNGYVTAKTTVNVRKSASESGERLGVIYQGDKLELVMNQADGWTKVKYKGQTAYVKSEFM,0.161
8,HMKERVSWDERLERFAKHITENESLPYPSSKEYAWFEENKALYDAGELEPVRAQSFAFLLKIMRRMNL,0.0752
9,HMLTAPMPGTIQQILVTKGQKVRSGQTLMILEAMKMEHKIKAPNSGEIISINYSLGNRVEMGANLIEI,0.0752
10,HMANSLLVTAQAGGQKLFNFLKRSLHAENNEIHRWIRTGQVRINKKRTKAFDIVHENDEIRIPPFALNR,-0.053
11,HMDLANLQNGQTLPLQRDVEVISIPFGKTISLSEDSVVSIMQAKGSSVSVAYEGRLYLIEGSNLDALGLEP,-0.888
12,HMGSPKLVIKNGQVDYQVLKKEKLDLLELTSLLRGQNTFSIREIEYAIIEPNGVITVIKKPEYQSVVKGDL,-1
13,HMTVLPTEQDAKALVGLGEEEAAKIVEGNGWTYRIGSRDGEQFMLTEDFVTSRLTLGIEKAIVMTATI,-2.11
14,HMLTLAVPNSINMRLDKYLSENIDYLSRSKIQGLINDGKVTINGENEKSSYKLNGDESIVIYYEE,-0.775
15,HMELADLPSAQIREILAYVYRAPLEKRRDPSIHWLLIAAHKLTLPLLDRLDPADARALGERYGADYP,-0.644
16,HMSGIESIVIPLKGLDFDMISSTLTPQLKQAIKYDKQSDSIILVGTNAKVNIIAKQVNAMVEVYKLKT,-0.0326
17,HMTAPELSVGDYLEYRGKEYKVESLDMDGFITLTDTALEDAPRLISRVTFLTDEFIRSGEYMVIT,-1.4
18,HMGKREKTKVANRQAILVAARAVFAELGYEAATVRDIIRGTDLASGTFYNYFKSKEEVFDALADDGA,-0.79
19,HMKDASEFLGAKGKTITPLRPTGAAVINGEKVDVLAEGEFIPKNAEIVVIKVEGSKIIVRNANN,-0.0474
20,HMINRMGRLVEALSHMIANTKPGARLPSEPELARQLGVSRATLREAMRTFEAQGMIHRRQGAGTFVVH,0.00515
21,HMSPRAIYVTTSDLNMRMQPSPNAYKRGVAPRGTELLVVEWGDDWSKVIFEGDTAYAASRYLSYVKDEP,-0.419
22,HMDRKFFFNEQYEDYINSDLKVKFMNDSGSKKSFQGELTKVTPSDLFLESEKESVKVPFSSIIQANLI,-0.591
23,HMKYVDYYATLGVARDADLATITKAYRKLARQTHPDLNQGADNEARFKAAAEAYATLKHPEKRAAYDELGQ,0.117
24,HMDAVSTMIENLRVKTGKSLADWVGLAKGSGADKHGAMVGWLKSEHGLTHGYANLIAHETFRSAA,0.0144
25,HMGPVPLASAADMEKFYSHLQQVLDEVDFKDRTGSGHLMARLRRLFQRTVLDQNEINILRGILMAVQGRR,-0.959

row,Sequence,soluble fraction (log2)
1,HMSGLVPAIGTKGEEGYIRESDIPGSNVKNPEEALAYMEWLKTQPSELLIPLYDEQGNVIGQFAVS,-0.681
2,HMRGAARRDRAVGERAVSKDTILDATRALLRKGSALEIRAIDIAEESGLSRQTVFQYYPVIRLIFFELSD,0.155
3,HMVNVLKNSTVIDLVKNNLSDALIISLIRRAKVDFSLMTDDVIELSGKGVSPAVIMEMRQAMIRQASEIQN,-0.183
4,HMKGVENLSDIDIQKALNNARANLSKNKAKLEQAGDDEKKKASALAMIQKWETTKKAIEEEIEARKKKSLN,-0.088
5,HMNETVTNQTVLDLLKEGFTSEEIIGAIENSSTRTITYDINFMRQLKAAGADVTLTTYLQKIAKKDM,-0.711
6,HMAITLEVAKKHLEMWLEAESEVAINQSYTIGGKSFTRANLAEIRKQIEYWSNKVAELENLA,-0.247
7,HMYQFFVDPGQIQGKRVTITGSDVNHIKNVLRMRIGEEIAVSNGKDGLEYRFGIDEILEDEVIGTLRFVKE,-1.87
8,HMHPKTPDELLALMSEEQRGQIEQLAKLVLMAVSYSGASYYDAVTTMYPRMSEERRRIITHVLNTASP,-0.825
9,HMSDAPLLSIRSLAVAFDGTRVVDGVSFDVARGEVVALVGESGSGKTVTGLSLLDLVPPPGRRVGGEV,-0.025
10,HMEVTLTLKSFGTAKVAVIKAIQSITGLGLMDAKKLVDAAPSVIKEKISPSEAEQYKKTLVDAGAEVEI,0.0249
11,HMLPKILVMDGKVNKNALTTLGKDEEWVKKVLRNHNIHSIKDVLLALYDTKGKFQYQLYDDYEK,-0.019
12,HMDQSIDADIINLNFSKNIIKIEENVYYKNNNAKVNADKIEINIETKKLKISMNEQEDEVEIFAK,-0.399
13,HMETMSYAEFNAIRIGKAKLMLADPSLKIWEISEAVGYTDTAHFARTFKKLEGMSANEYRNSL,-0.713
14,HMKNDIQLKHDVEEELQWDPAVDASRFAVQAKDGVVTLSGGVDTFADKHAAEEAIRRVAGVTALVIHVDV,-0.271
15,HMKQVNVVSVIGQSEANAKTTLTGLGLKVNVAYEEDTSKADGIVLKQSLEGGKTVNEGTTITITVNKIA,-0.567
16,HMNAAFMKAERLLAILNILLTGKRVSSTELAKKLEVSVRTVYRDVEALSEAGFPVYATMGRDGGFGLIEGF,-1.58
17,HMIQNTGMMESGDSIRGMALDAGFPLLMVVGYRGWTRKGNTPDSAAVYTEPFLNAFRLNYYLVEHDE,-0.0253
18,HMNDQLIYSDFIRQVQDGQITEVTISGLNIAGTRSDGSVFNTLRPYIEDPKLIDDLLSHNVRIQGAE,-0.632
19,HMEPFEQLLDRITSQTGKEPEEVVARMNELITERFDGNIRPEAALVIVAKRDNIQFMDLLDQLKQALL,-0.907
20,HMRDAKSQLQEALQKSGRLPEYELVSVEGPPHAPVFTYRVRIDGAVVGEGQGASKQAAQQAAAQSALKSG,0.22
21,HMVITDPFFLEPENLVKDAVALMEKYRISGVPITKKGKLVGILTNRDLRFESNYEQPIANVMS,-0.363
22,HMSGEMGIIVAKRLPIRSEPDELATRAFVLKAGTRVKIVKHLNGWLEIVHDGKAGYVQDLEVYVRVIG,-0.445
23,HMLSSAAAIDRILAGGTAAMNHRQFDAALTSFNTVIEMRPDFAEGWNKRATLYYLIGEYERSIADVERTLA,0.0555
24,HMKDKSEKTKKLIFEAAFKIIREEGFSELSANKIAQVASVSKGVIFHHFSQMDDLYLFMLDTL,0.192
25,HMEMNPLDIQNKAAELAQQWLQLPVGERQKQMAAVRTSNPNLHAMAKQKMEEMRSQAESQGRQSLSQP,-0.0586

row,Sequence,soluble fraction (log2)
1,HMRRSVYQANVLDAIKHLVDQNELATTKAIAEYIGDDYQGNVSRAIRELLADRKIKKLPKVGVLQPYEA,0.127
2,HMVAGHLQEKNGYFYIVLNYTNHEGKRKSKWITTGLTVKGNKKRAQDLLQEARKTFVPDIPT,0.22
3,HMIAGHLQEKKGFFYIVLSYPDAAGKRKTKWFPTKLSVKGNKKKAEVMLMDARKTFVPPETPL,0.207
4,HMSGPAEDLLAIEGMDKELAYELAARGIRTRDELADQSLDELEAVPGLDPVRAGQLIMAARAHLFENAGQ,-0.355
5,HMIADPAKPDWTTILAPVTTGTTVTHKTFGQGTVTKLDKTKKYLTVSFAAGQKNFVFPNAFIDGFLK,-0.105
6,HMDAAANTLRILKALSESPMSADRLAELLMEEGSGRNPRTIRRYIRALREAGFGVEHREGRYVL,-0.483
7,HMPELPEVETSRRGIEPHLVGATILHAVVRNGRLRWPVSEEIYRLSDQPVLSVQRRAKYLLLELQA,0.369
8,HMTSGPAWPALSAQQRSVLAPLQRDWHTIDAARKAKWLEVAARFPSMPAEERQRVQERMAEWA,-0.0144
9,HMSKAYLSVESNISGARVFVDGQKEGTTPLSDVLLSAGEHLILVKKQGYETYQKRVRFQKGRSMSLYVDLS,-0.0554
10,HMQISGSEELEKIVQTVLEKNTDVVEEYKSGKTKVFAFLMGQVMKESRGKANPRLAKDILEKFLA,0.177
11,HMHDYNTIVGVIEMRDKNIPLTSIRQRYGIGYSGIDLILTRYKDSGLTLKEFLALDPSQAEELIYPPK,-0.134
12,HMEKILSYKALMNDAGKRIDQFLANNEKDISRTRIKSLILEGSLKLDNNIINDPSYKIKENDVFTLFIPEA,0.0775
13,HMTDSISLTLNGDPRPFRAGATVADLVRDIGLDPAKVAVERNLEIVPRSTLENVHLADGDVLEIVHFV,-0.45
14,HMATTIDFTVGDDVQVMNGPLESFTGKVTELNEASQKVKVDVVMFGRVTNVELDFVQVKKIT,-0.531
15,HMKITAPLPGTITEIKVKVGDTVKNGDTVVVLEAMKMQNNIEAESNGTVTAIFVNKGDTVMEGDALMTI,0.22
16,HMLRDMIIQSYRYYTDKERNPRQVWNRMEADAFWEIIRDYEGYNGDGYVHTKIIPEMEALTVIEMDN,-1.62
17,HMHKKQEVQDSIDAAEEFMRASGVPAELITSKRAYAVKAIYADAVDKGTPDEIVKKDGMIVALISQMRS,-0.159
18,HMTANDKRNALYRKIEVGRRQLPAMDEVAFRQLLAAEFGVESRKDMSVGQLSRLVNILAEKGAVF,0.0414
19,HMPHILEITSSKILDELQDEKKMVYFHFEKQSNQYVYRLIFNSKNELMEFKKSLEKNSSILDVRADM,-0.354
20,HMPDLQDTLYRLVPEDGSAIGNQSLREKFLSTAKDASDADFEAARDGLVEQGKLTKGKGRGGSVRRAEP,0.397
21,HMQDKIWVVDETQLYPKLIEAMSEGKAVIHDGVAYWAEGSGKTGVIQHLPFKETTVQNVEEAIKLAQ,-0.543
22,HMETGFADTLRKFRKEADMTQEKLAEALGVTTGAVYKWENGRSTPEVRLLVEMADLFGTSVDALLDYKVR,-0.723
23,HMVSGSPTVDILMQRGLEYQQQENLEAARDAFDRAINLKPDYAEAWNRRAVLFFNEGKYDEAIADLETAIT,-0.0941
24,HMEVFTPSEANVAEAREILAAMATAKANGEGATVYKGRLVDIASIKQAEVIVRQSEMIQSAH,-0.151
25,HMKPVSEMDNMEWVREQYFQNMIYEIGEWVKDKKTGIVGEIVKRGTNYVTIVQEDFSLHKIWLEDLETTE,-0.368
